Data taken from article PMC4267640.

Molecular target: DNA polymerase alpha catalytic core (p180 core) (human, UniProt P09884 335-1257)
Test: X-ray crystallography

Chain of DNA polymerase alpha catalytic core (p180 core) (P09884 335-1257): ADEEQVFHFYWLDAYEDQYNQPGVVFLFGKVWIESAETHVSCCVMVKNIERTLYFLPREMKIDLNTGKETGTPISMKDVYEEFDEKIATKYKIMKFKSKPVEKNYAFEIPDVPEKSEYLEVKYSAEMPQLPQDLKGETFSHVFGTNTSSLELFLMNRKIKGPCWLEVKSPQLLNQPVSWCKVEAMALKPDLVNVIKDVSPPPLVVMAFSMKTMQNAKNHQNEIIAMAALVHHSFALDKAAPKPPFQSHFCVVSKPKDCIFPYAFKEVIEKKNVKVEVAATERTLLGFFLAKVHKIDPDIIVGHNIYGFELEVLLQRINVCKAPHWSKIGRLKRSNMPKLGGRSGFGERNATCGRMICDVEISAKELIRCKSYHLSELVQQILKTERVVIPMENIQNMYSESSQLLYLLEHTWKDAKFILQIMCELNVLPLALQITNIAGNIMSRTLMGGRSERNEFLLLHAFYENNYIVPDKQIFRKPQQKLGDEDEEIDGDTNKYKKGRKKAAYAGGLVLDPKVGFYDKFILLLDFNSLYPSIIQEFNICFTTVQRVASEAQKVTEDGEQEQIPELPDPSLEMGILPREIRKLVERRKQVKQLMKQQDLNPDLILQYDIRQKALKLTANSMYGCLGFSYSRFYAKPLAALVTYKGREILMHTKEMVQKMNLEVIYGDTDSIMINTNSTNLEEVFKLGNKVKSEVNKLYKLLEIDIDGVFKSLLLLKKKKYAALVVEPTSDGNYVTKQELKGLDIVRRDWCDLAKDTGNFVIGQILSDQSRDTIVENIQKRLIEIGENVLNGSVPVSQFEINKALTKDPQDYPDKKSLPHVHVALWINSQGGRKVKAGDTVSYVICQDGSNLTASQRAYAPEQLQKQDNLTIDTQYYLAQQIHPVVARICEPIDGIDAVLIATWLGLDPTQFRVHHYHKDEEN

B1: RNA-primed DNA template (DNA:RNA)
DNA: ATTACTATAGGCGCTCCAGGC
RNA: GCCUGGAGCGC
modifications: primer strand is RNA with a 3'-terminal dideoxycytidine (ddC)
Q: Does B1 bind?
A: binds
